Assay results published in IntAct's records for PubMed 35512704.

B1: Mothers against decapentaplegic homolog 4 (Homo sapiens), Q13485 (parent)
chain: MDNMSITNTPTSNDACLSIVHSLMCHRQGGESETFAKRAIESLVKKLKEKKDELDSLITAITTNGAHPSKCVTIQRTLDGRLQVAGRKGFPHVIYARLWRWPDLHKNELKHVKYCQYAFDLKCDSVCVNPYHYERVVSPGIDLSGLTLQSNAPSSMMVKDEYVHDFEGQPSLSTEGHSIQTIQHPPSNRASTETYSTPALLAPSESNATSTANFPNIPVASTSQPASILGGSHSEGLLQIASGPQPGQQQNGFTGQPATYHHNSTTTWTGSRTAPYTPNLPHHQNGHLQHHPPMPPHPGHYWPVHNELAFQPPISNHPAPEYWCSIAYFEMDVQVGETFKVPSSCPIVTVDGYVDPSGGDRFCLGQLSNVHRTEAIERARLHIGKGVQLECKGEGDVWVRCLSDHAVFVQSYYLDREAGRAPGDAVHKIYPSAYIKVFDLRQCHRQMQQQAATAQAAAAAQAAAVAGNIPGPGSVGGIAPAISLSAAAGIGVDDLRRLCILRMSFVKGWGPDYPRQSIKETPCWIEIHLHRALQLLDEVLHTMPIADPQPLD

Variants of: B1
Details: with smad3_human SMAD3, P84022

Variant | effect of a mutation on the interaction
G386D | disrupting interaction strength

Variants of: B1
Details: with smad1_human SMAD1, Q15797

Variant | effect of a mutation on the interaction
G386D | disrupting interaction strength

Variants of: B1
Details: with axin2_human AXIN2, Q9Y2T1
axin2_human AXIN2, Q9Y2T1, sequence (Q9Y2T1 whole entry): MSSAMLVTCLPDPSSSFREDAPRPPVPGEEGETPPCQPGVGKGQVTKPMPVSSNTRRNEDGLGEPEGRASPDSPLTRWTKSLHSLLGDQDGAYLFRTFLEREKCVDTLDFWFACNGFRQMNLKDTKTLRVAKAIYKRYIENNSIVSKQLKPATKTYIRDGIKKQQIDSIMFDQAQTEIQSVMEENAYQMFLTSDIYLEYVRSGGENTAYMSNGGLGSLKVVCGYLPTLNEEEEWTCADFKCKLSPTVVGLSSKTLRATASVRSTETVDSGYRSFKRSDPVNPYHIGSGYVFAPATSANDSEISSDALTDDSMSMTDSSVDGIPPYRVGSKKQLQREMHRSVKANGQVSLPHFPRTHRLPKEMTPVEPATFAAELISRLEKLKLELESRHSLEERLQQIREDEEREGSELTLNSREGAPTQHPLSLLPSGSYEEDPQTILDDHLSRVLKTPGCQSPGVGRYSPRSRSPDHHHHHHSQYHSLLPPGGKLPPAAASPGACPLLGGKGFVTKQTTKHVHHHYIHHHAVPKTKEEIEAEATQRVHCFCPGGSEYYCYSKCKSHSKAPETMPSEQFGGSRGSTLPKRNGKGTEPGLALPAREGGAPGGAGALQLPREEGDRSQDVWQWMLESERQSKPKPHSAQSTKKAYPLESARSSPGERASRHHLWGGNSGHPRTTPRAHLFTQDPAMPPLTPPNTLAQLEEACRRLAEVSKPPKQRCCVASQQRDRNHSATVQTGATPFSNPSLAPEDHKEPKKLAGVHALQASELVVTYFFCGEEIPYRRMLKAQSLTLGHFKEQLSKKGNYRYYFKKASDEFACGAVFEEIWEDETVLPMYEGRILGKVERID

Variant | effect of a mutation on the interaction
G386D | causing an interaction

Variants of: B1
Details: with gsk3b_human GSK3B

Variant | effect of a mutation on the interaction
G386D | causing an interaction

Variants of: B1
Details: with agap2_human AGAP2, Q99490

Variant | effect of a mutation on the interaction
G386D | with no effect

Variants of: B1
Details: with ajuba_human AJUBA

Variant | effect of a mutation on the interaction
G386D | with no effect

Variants of: B1
Details: with akt1_human AKT1, P31749

Variant | effect of a mutation on the interaction
G386D | with no effect

Variants of: B1
Details: with akts1_human AKT1S1, Q96B36

Variant | effect of a mutation on the interaction
G386D | with no effect

Variants of: B1
Details: with alk_human ALK

Variant | effect of a mutation on the interaction
G386D | with no effect

Variants of: B1
Details: with aph1a_human APH1A

Variant | effect of a mutation on the interaction
G386D | with no effect

Variants of: B1
Details: with arnt_human ARNT

Variant | effect of a mutation on the interaction
G386D | with no effect

Variants of: B1
Details: with bakor_human ATG14, Q6ZNE5

Variant | effect of a mutation on the interaction
G386D | with no effect

Variants of: B1
Details: with atpb_human ATP5F1B

Variant | effect of a mutation on the interaction
G386D | with no effect

Variants of: B1
Details: with aurkb_human AURKB

Variant | effect of a mutation on the interaction
G386D | with no effect

Variants of: B1
Details: with axin2_human AXIN2, Q9Y2T1
Remark: another data set of the same source

Variant | effect of a mutation on the interaction
G386D | with no effect

Variants of: B1
Details: with ufo_human AXL

Variant | effect of a mutation on the interaction
G386D | with no effect

Variants of: B1
Details: with za2g_human AZGP1, P25311

Variant | effect of a mutation on the interaction
G386D | with no effect

Variants of: B1
Details: with b2mg_human B2M

Variant | effect of a mutation on the interaction
G386D | with no effect

Variants of: B1
Details: with bap1_human BAP1, Q92560
bap1_human BAP1, Q92560, sequence (Q92560 whole entry): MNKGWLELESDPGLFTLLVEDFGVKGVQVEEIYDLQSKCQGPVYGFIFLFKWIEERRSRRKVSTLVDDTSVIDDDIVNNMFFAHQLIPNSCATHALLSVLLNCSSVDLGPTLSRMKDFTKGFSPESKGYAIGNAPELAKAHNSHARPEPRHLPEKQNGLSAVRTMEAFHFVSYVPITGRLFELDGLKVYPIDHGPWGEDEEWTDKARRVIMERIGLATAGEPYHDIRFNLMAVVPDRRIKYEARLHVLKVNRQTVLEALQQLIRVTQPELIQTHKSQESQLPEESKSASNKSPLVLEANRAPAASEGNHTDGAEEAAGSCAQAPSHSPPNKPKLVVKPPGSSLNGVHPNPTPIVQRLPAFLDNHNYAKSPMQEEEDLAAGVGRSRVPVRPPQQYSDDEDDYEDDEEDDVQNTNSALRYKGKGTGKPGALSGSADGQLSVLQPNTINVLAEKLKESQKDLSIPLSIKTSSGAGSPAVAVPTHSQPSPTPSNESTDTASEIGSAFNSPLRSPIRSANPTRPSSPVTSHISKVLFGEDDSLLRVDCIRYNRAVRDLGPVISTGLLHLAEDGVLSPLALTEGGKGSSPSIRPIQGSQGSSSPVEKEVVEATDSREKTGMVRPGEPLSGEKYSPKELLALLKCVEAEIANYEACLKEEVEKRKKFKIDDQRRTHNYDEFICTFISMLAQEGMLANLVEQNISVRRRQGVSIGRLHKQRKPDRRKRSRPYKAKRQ

Variant | effect of a mutation on the interaction
G386D | with no effect

Variants of: B1
Details: with becn1_human BECN1, Q14457

Variant | effect of a mutation on the interaction
G386D | with no effect

Variants of: B1
Details: with birc2_human BIRC2, Q13490

Variant | effect of a mutation on the interaction
G386D | with no effect

Variants of: B1
Details: with braf_human BRAF

Variant | effect of a mutation on the interaction
G386D | with no effect

Variants of: B1
Details: with baba2_human BABAM2, Q9NXR7

Variant | effect of a mutation on the interaction
G386D | with no effect

Variants of: B1
Details: with btg1_human BTG1, P62324
btg1_human BTG1, P62324, sequence (P62324 whole entry): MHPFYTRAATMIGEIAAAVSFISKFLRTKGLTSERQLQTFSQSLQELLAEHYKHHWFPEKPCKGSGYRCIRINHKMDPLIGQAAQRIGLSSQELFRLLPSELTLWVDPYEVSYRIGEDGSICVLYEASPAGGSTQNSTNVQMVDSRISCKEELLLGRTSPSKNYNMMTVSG

Variant | effect of a mutation on the interaction
G386D | with no effect

Variants of: B1
Details: with btk_human BTK

Variant | effect of a mutation on the interaction
G386D | with no effect

Variants of: B1
Details: with cbl_human CBL

Variant | effect of a mutation on the interaction
G386D | with no effect

Variants of: B1
Details: with cblb_human CBLB

Variant | effect of a mutation on the interaction
G386D | with no effect

Variants of: B1
Details: with ccnd1_human CCND1, P24385

Variant | effect of a mutation on the interaction
G386D | with no effect

Variants of: B1
Details: with ccnd2_human CCND2, P30279

Variant | effect of a mutation on the interaction
G386D | with no effect

Variants of: B1
Details: with ccnd3_human CCND3, P30281
ccnd3_human CCND3, P30281, sequence (P30281 whole entry): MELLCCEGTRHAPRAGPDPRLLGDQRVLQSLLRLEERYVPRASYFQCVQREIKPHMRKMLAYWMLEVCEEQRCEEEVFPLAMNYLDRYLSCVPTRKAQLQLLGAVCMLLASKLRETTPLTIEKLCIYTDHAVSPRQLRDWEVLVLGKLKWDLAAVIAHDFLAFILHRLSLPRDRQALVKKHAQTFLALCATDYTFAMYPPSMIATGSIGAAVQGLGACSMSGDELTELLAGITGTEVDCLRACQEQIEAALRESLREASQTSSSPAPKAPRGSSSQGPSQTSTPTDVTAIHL

Variant | effect of a mutation on the interaction
G386D | with no effect

Variants of: B1
Details: with cd44_human CD44, P16070

Variant | effect of a mutation on the interaction
G386D | with no effect

Variants of: B1
Details: with cd79b_human CD79B

Variant | effect of a mutation on the interaction
G386D | with no effect

Variants of: B1
Details: with cdc27_human CDC27, P30260
cdc27_human CDC27, P30260, sequence (P30260 whole entry): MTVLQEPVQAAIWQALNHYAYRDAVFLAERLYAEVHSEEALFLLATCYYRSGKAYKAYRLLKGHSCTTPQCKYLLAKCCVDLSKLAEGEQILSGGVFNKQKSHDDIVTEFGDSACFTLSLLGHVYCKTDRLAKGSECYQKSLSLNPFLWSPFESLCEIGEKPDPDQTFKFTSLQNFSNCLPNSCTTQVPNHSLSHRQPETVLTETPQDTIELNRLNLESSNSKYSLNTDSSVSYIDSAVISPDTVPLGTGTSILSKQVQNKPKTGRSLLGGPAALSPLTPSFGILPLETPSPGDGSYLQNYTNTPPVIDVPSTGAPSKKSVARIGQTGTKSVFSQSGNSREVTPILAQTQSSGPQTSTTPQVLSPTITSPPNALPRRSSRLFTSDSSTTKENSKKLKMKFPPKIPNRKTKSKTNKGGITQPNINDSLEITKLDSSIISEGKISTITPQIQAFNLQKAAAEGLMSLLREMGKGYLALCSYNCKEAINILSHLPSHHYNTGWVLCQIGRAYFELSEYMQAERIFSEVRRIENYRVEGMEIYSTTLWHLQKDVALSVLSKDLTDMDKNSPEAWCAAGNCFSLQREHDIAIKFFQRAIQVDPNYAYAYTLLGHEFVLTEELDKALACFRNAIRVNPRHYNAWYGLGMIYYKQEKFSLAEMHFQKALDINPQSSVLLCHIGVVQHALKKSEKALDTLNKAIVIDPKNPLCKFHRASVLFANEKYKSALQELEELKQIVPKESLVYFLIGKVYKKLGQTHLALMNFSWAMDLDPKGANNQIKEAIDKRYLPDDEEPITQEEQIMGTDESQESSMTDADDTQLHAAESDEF

Variant | effect of a mutation on the interaction
G386D | with no effect

Variants of: B1
Details: with cdk4_human CDK4, P11802

Variant | effect of a mutation on the interaction
G386D | with no effect

Variants of: B1
Details: with cdk6_human CDK6, Q00534
cdk6_human CDK6, Q00534, sequence (Q00534 whole entry): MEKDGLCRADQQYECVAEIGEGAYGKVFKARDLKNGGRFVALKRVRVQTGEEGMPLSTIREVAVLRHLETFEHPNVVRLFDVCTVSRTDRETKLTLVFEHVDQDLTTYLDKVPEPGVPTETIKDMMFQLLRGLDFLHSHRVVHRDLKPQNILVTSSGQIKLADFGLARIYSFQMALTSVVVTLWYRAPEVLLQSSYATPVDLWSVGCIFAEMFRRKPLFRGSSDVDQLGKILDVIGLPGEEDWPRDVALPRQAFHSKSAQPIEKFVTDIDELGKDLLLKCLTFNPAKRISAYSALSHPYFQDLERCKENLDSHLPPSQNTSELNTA

Variant | effect of a mutation on the interaction
G386D | with no effect

Variants of: B1
Details: with cdn2b_human CDKN2B

Variant | effect of a mutation on the interaction
G386D | with no effect

Variants of: B1
Details: with cdn2c_human CDKN2C

Variant | effect of a mutation on the interaction
G386D | with no effect

Variants of: B1
Details: with cebpa_human CEBPA

Variant | effect of a mutation on the interaction
G386D | with no effect

Variants of: B1
Details: with chd1l_human CHD1L

Variant | effect of a mutation on the interaction
G386D | with no effect

Variants of: B1
Details: with chd2_human CHD2, O14647
chd2_human CHD2, O14647, sequence (O14647 whole entry): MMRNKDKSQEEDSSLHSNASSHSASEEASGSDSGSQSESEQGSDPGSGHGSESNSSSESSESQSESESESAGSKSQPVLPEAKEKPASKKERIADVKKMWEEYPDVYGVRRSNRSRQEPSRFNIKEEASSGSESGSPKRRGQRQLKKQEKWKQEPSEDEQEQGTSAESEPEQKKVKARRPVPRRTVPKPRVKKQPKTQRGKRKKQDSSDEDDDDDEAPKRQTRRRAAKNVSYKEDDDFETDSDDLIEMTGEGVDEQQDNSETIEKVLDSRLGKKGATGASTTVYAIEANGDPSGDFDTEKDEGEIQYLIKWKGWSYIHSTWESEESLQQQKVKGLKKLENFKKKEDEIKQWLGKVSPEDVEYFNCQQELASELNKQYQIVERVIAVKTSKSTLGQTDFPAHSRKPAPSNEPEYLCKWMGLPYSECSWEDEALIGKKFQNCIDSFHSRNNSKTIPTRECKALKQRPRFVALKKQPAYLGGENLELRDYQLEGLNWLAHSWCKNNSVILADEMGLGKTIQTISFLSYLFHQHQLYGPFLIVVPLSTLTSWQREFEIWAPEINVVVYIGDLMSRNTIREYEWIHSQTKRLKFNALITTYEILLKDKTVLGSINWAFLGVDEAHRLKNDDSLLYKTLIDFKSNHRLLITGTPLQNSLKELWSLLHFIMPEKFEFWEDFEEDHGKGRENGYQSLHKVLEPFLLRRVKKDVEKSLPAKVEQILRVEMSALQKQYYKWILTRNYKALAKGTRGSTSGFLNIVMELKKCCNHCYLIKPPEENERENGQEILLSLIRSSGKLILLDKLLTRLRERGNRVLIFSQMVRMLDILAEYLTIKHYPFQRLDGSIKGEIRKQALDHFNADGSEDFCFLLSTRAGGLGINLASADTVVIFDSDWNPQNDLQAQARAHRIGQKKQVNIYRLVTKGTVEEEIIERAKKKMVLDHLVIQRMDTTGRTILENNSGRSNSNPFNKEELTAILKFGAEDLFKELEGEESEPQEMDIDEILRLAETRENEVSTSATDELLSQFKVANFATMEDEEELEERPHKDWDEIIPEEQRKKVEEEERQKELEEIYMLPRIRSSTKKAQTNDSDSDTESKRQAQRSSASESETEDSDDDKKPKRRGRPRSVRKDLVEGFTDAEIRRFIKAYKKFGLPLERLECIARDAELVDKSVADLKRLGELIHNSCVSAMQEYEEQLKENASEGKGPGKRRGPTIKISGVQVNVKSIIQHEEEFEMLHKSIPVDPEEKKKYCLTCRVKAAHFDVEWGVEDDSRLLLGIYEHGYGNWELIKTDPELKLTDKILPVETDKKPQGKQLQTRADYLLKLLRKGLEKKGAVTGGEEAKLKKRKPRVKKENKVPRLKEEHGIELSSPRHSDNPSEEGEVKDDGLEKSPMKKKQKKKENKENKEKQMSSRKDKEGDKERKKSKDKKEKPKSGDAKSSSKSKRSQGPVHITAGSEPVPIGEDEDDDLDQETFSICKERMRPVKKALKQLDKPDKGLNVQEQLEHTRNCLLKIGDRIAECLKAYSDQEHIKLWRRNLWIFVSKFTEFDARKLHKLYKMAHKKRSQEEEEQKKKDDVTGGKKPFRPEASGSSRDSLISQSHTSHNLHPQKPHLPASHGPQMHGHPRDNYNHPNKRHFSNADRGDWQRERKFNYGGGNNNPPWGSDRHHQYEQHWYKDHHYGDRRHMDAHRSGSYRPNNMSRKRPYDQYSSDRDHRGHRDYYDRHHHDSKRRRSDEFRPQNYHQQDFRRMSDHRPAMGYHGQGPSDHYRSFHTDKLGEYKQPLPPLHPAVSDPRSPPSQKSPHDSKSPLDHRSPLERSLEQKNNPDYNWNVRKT

Variant | effect of a mutation on the interaction
G386D | with no effect

Variants of: B1
Details: with ch3l1_human CHI3L1, P36222

Variant | effect of a mutation on the interaction
G386D | with no effect

Variants of: B1
Details: with csf1r_human CSF1R

Variant | effect of a mutation on the interaction
G386D | with no effect

Variants of: B1
Details: with ctna1_human CTNNA1, P35221

Variant | effect of a mutation on the interaction
G386D | with no effect

Variants of: B1
Details: with ctnb1_human CTNNB1, P35222

Variant | effect of a mutation on the interaction
G386D | with no effect

Variants of: B1
Details: with cul3_human CUL3, Q13618

Variant | effect of a mutation on the interaction
G386D | with no effect

Variants of: B1
Details: with dicer_human DICER1, Q9UPY3

Variant | effect of a mutation on the interaction
G386D | with no effect

Variants of: B1
Details: with dll3_human DLL3, Q9NYJ7

Variant | effect of a mutation on the interaction
G386D | with no effect

Variants of: B1
Details: with duox2_human DUOX2, Q9NRD8

Variant | effect of a mutation on the interaction
G386D | with no effect

Variants of: B1
Details: with e2f1_human E2F1, Q01094

Variant | effect of a mutation on the interaction
G386D | with no effect

Variants of: B1
Details: with e2f2_human E2F2, Q14209

Variant | effect of a mutation on the interaction
G386D | with no effect

Variants of: B1
Details: with e2f4_human E2F4, Q16254

Variant | effect of a mutation on the interaction
G386D | with no effect

Variants of: B1
Details: with e2f5_human E2F5, Q15329

Variant | effect of a mutation on the interaction
G386D | with no effect

Variants of: B1
Details: with e2f8_human E2F8, A0AVK6

Variant | effect of a mutation on the interaction
G386D | with no effect

Variants of: B1
Details: with if4e_human EIF4E

Variant | effect of a mutation on the interaction
G386D | with no effect

Variants of: B1
Details: with epha2_human EPHA2, P29317

Variant | effect of a mutation on the interaction
G386D | with no effect

Variants of: B1
Details: with epha7_human EPHA7, Q15375

Variant | effect of a mutation on the interaction
G386D | with no effect

Variants of: B1
Details: with ephb1_human EPHB1, P54762

Variant | effect of a mutation on the interaction
G386D | with no effect

Variants of: B1
Details: with erbb3_human ERBB3, P21860

Variant | effect of a mutation on the interaction
G386D | with no effect

Variants of: B1
Details: with erbb4_human ERBB4, Q15303

Variant | effect of a mutation on the interaction
G386D | with no effect

Variants of: B1
Details: with esr1_human ESR1, P03372

Variant | effect of a mutation on the interaction
G386D | with no effect
